{"source": "patent US11884710B2", "about": "“Peptide compounds and methods of use in wound healing” (priority 2013, dated 2024)", "molecules": {"B1": {"name": "CAP37: cationic antimicrobial protein of Mr 37 kDa; recombinant CAP37 produced in human embryonic kidney (HEK) 293 cells (protein)", "chain": "IVGGRKARPRQFPFLASIQNQGRHFCGGALIHARFVMTAASCFQSQNPGVSTVVLGAYDLRRRERQSRQTFSISSMSENGYDPQQNLNDLMLLQLDREANLTSSVTILPLPLQNATVEAGTRCQVAGWGSQRSGGRLSRFPRFVNVTVTPEDQCRPNNVCTGVLTRRGGICNGDGGTPLVCEGLAHGVASFSLGPCGRGPDFFTRVALFRDWIDGVLNNPGP"}}, "key": {"mouse cornea": {"system": "mouse cornea", "test": "Histology (H&E) of corneal wound closure and re-epithelialization", "assay_type": "in vivo", "conditions": "rCAP37 250 ng/ml", "procedure": "FIG. 23 is a histological analysis of corneal wound closure and re-epithelialization in response to CAP37. Corneas of mice were wounded using the Algerbrush II and treated at 0 and 16 hours with rCAP37 (250 ng/ml) or vehicle (normal saline). Whole eye globes were enucleated at 0, 24, and 48 hours post wounding, and sections were stained using hematoxylin and eosin (H&E). Representative images are shown of (A) CAP37-treated wound at 24 hours, (B) vehicle-treated wound at 24 hours, (C) CAP37-treated wound at 48 hours, and (D) vehicle treated wound at 48 hours. The extent of closure and re-epithelialization of wounds was compared with (E) normal unwounded cornea.\nHistology: Whole mouse eyes were collected for histology at 0, 6, 16, 24, and 48 hours post wounding and were immediately placed in Prefer fixative (Anatech LTD., Battle Creek, Mich.) for 20 minutes before being transferred to 70% ethanol. Tissues were paraffin-embedded and cut at a thickness of 5 μm, mounted on SUPERFROSTPLUS® slides (Statlab Medical Products, Lewisville, Tex.), and subsequently deparaffinized, rehydrated, and washed in deionized water. Sections were stained with hematoxylin (Leica Microsystems, Buffalo Grove, Ill.) and rinsed twice in deionized water before being washed in Blue Buffer (Leica Microsystems). […]"}, "[1]": {"system": "human corneal epithelial cell (HCEC)", "test": "HCEC chemotaxis, modified Boyden chemotaxis chamber", "assay_type": "cell-based", "conditions": "rCAP37 250 ng/ml; positive control for the peptide", "procedure": "The effect of buffer control (0.1% BSA in Gey's buffer), heparin binding-epidermal growth factor (HB-EGF, 50 ng/ml), recombinant CAP37 (rCAP37, 250 ng/ml), 120-146QH (10^−12M, 10^−10 M, 10^−8 M, 10^−6M, and 10^−4M,) and 120-146QR (10^−10M, 10^−8M, 10^−6M, and 10^−4M) on HCEC chemotaxis was determined by the modified Boyden chemotaxis chamber method. HCEC chemotaxis was measured in response to HB-EGF, rCAP37, and peptides 120-146QH (SEQ ID NO:29) and 120-146QR (SEQ ID NO:28) after incubation for 3 hours at 37° C. Chemotaxis is expressed as a percent migration. The buffer control (no chemoattractant) is arbitrarily assigned the value of 100% migration. Data are expressed as means±SEM and are calculated from 6 observations for each test point. **P<0.01 by Wilcoxon signed-rank test as compared to controls.\nChemotaxis: Chemotaxis assays were performed using the modified Boyden chemotaxis chamber assay. Peptide 120-146QH was used at 10^−4 M, 10^−6 M, 10^−8 M, 10^−10 M, and 10^−12 M, and peptide 120-146QR was used at 10^−4 M, 10^−6 M, 10^−8M, and 10^−10M."}}}
{"molecule": "B1", "values": [{"measurement": "re-epithelialization vs vehicle, in words", "setting": "mouse cornea; 24 hours", "result": "greatly accelerated in comparison to the vehicle-treated wounds"}, {"measurement": "structural integrity of the epithelium, in words", "setting": "mouse cornea; 48 hours", "result": "regained full integrity"}, {"measurement": "migration of HCECs vs buffer control, in words", "setting": "[1]", "result": "significant increase in migration"}]}
